Laboratory results: publication PMC11474084, “Capturing a methanogenic carbon monoxide dehydrogenase/acetyl-CoA synthase complex via cryogenic electron microscopy” (Proceedings of the National Academy of Sciences of the …, 2024)

B1: Methanosarcina thermophila carbon monoxide dehydrogenase (MetCODH) α subunit (enzyme, UniProt A0A0E3ND19 1-803, looked up)
chain: MSKLTTGSFSIEDLESVQITINNIVGAAKEAAEKAEEELGPMGPTPFPTAATVRDWSFTLFDRYEPVYTPMCDQCCYCTFGPCNLEGNRRGACGLDMKGQAAREFFLRCITGCACHSAHGRHLLDHIISIFGEDMPINMGASNVIAPNIQLITGRQPKTLGDLKPIMEYVEEELGQLLATVHAGQEGAAIDYDNKAMLAGILDHVGMEVSDIAQVTALGFPKSDPEAPLVEVGMGTLDASKPVIIAIGHNVAGVTYIMDYMEDNNLTDKMEIGGLCCTAFDMTRYKREDRKPPYAKIVGTISKELKVVRSGIPDVIVIDEQCVRADLVEEGKKLKIPVIASNEKVMYGLPDRTNDDVDAIIEDIKTGKIPGCVMLDYEKLGELVPRLAMEMAPLREGISAIPSDEEMASLVAKCVACGECALACPEELDIPDAIQAAKEGDFTALDFLHDLCVGCRRCEQVCNKEIPILSVIDKAAQKAIAEEKGLVRAGRGQVSDAEIRAEGLNLVMGTTPGVIAIIGCANYPAGSKDVYRIAEEFLNRNYIVAVSGCSAMDIGMYKDADGKTLYERFPGRFERGNILNTGSCVSNSHISGTCHKVAAIFAGRNLSGNLAEIADYTLNRVGAVGLAWGAYSQKAAAIGTGCNMYGIPAVLGPHSGKYRRALIAKTYDENKWKVYDSRNGSELDIPPSPEFLITTAETWQEACVLLAKNCIRPSDNNMGRSIKLTHWIELSEKYLGVLPEDWWKFVRHEADLPLSRREELLKKLETEHGWEIDWKKKKIISGPKIKFDVSSQPTNLKRLCKEA
notes: α subunit of the CODH component of the acetyl-CoA decarbonylase/synthase (ACDS) complex, Methanosarcina thermophila strain TM-1; source: purified from M. thermophila strain TM-1 as part of the ACDS complex (Sepharose CL-6B); subcomplexes formed by dissociation on the cryo-EM grid
B2: Methanosarcina thermophila acetyl-CoA synthase (MetACS) β subunit (enzyme, UniProt A0A0E3NEI1 1-472, looked up)
chain: MSEFPFEISPMFEGERVRKEGMFVELGGPKSLGLELVRAKPMDEIEDGKVTIVGPDLKDMEEGKTYPWAMIFHVGGELVEPDLESVIERRVHDFINYCQGIMHLNQRYDVWMRISKDTAAKMDSFEPFGKAVMMLFKTELPFIEKMQVTFYTDQAEVEKQMAEAMEIFKARDARTKDLHDEDVDVFYGCTLCQSFAPTNVCVVSPDRVSLCGAINWFDGRAAAKVDPEGPQFAIEKGELLDAKTGEYSGVNEVAKKLSSGEFDKIKLHSFFDAPHTSCGCFEVVGFYIPEVDGIGWVNREYQGMAPNGLGFSTMAGQTGGGKQIVGFLGIGINYFYSPKFIQADGGWNRVVWLPSMLKEKIDEAIPDDMKDKIATEKDVTDIESLKTFLKEKNHPVVANWAAEAEEEEEEEEEEEEVAAEAAPMMMPAAGFQMPAMPAMPMMSGGAGGIKLTFKNAKITIDRMIISEKKEKK
notes: β (ACS) subunit of the ACDS complex, Methanosarcina thermophila strain TM-1; native protein; the model building counts residues 1 to 472, of which 398 to 472 (C-terminal extension) had no EM density; A2 domain residues 4 to 151, A3 domain residues 186 to 397; Carries the Ni-Fe-S A-cluster, with density modelled as CO on the proximal nickel; The deposited coordinates hold only about residues 1-397 …

What was measured:
[1] = molecular target: the molecule itself; assay: cryo-EM structure; purified native ACDS complex, 4 mg/mL in 25 mM MOPS, 25 mM Na2SO4, pH 7.2; chameleon-plunged, dispense-to-plunge time 150 ms; on-grid dissociation gave CODH tetramer (2.8 Å), CODH/ACS pentamer and hexamer (3.2 Å each)
[2] = molecular target: B1; assay: as above; conditions: both partners purified

| Binder | binding result [1] | binding result [2] |
| --- | --- | --- |
| B1 | binds |  |
| B2 |  | binds |
